Source: PMC9242591 (Science Advances, 2022)

T1: His-tagged NIN-LIKE PROTEIN 7 (His-NLP7) (Arabidopsis thaliana, UniProt Q84TH9 1-959)
T1 sequence (looked up): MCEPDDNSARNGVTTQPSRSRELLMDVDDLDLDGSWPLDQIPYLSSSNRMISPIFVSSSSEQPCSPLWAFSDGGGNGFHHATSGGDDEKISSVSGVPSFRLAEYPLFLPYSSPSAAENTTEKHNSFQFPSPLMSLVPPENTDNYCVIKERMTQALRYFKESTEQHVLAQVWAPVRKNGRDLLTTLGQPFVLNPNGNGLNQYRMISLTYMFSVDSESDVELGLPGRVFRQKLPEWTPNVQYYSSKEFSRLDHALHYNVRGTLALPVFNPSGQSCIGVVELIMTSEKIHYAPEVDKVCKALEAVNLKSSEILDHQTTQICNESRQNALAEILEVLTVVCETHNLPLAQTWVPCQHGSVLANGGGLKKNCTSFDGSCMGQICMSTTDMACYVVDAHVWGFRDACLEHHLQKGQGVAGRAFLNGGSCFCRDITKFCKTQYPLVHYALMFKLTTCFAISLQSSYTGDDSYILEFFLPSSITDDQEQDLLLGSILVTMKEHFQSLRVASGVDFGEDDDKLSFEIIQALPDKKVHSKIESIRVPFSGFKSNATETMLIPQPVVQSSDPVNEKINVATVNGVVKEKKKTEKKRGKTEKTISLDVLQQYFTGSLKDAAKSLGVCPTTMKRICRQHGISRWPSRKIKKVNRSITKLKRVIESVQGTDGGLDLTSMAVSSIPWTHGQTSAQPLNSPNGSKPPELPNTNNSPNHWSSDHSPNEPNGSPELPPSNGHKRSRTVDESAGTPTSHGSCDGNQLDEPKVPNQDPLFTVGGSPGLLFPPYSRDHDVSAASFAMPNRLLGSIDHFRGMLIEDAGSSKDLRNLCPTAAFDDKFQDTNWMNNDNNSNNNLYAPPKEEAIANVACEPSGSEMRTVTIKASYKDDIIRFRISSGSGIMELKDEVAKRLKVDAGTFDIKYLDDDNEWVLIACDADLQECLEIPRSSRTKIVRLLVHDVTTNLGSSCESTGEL

B1: GST-tagged CALCIUM-DEPENDENT PROTEIN KINASE 28 (GST-CPK28) (enzyme, Arabidopsis thaliana, UniProt Q9FKW4 1-523, looked up)
chain: MGVCFSAIRVTGASSSRRSSQTKSKAAPTPIDTKASTKRRTGSIPCGKRTDFGYSKDFHDHYTIGKLLGHGQFGYTYVAIHRPNGDRVAVKRLDKSKMVLPIAVEDVKREVQILIALSGHENVVQFHNAFEDDDYVYIVMELCEGGELLDRILSKKGNRYSEKDAAVVVRQMLKVAGECHLHGLVHRDMKPENFLFKSAQLDSPLKATDFGLSDFIKPGKRFHDIVGSAYYVAPEVLKRRSGPESDVWSIGVITYILLCGRRPFWDRTEDGIFKEVLRNKPDFSRKPWATISDSAKDFVKKLLVKDPRARLTAAQALSHAWVREGGNATDIPVDISVLNNLRQFVRYSRLKQFALRALASTLDEAEISDLRDQFDAIDVDKNGVISLEEMRQALAKDLPWKLKDSRVAEILEAIDSNTDGLVDFTEFVAAALHVHQLEEHDSEKWQLRSRAAFEKFDLDKDGYITPEELRMHTGLRGSIDPLLDEADIDRDGKISLHEFRRLLRTASISSQRAPSPAGHRNLR
B2: CBF1-NREL probe (dsDNA)
DNA 1: AAAAGTCTCTTTACAAGGGTCAAA
DNA 2: TTTGACCCTTGTAAAGAGACTTTT

What was measured:
[1] = biological target: T1, His-tagged NIN-LIKE PROTEIN 7 (His-NLP7); experiment: pull-down
[2] = biological target: His-NLP7 (RWP-RK) (Arabidopsis thaliana, UniProt Q84TH9 535-733); experiment: EMSA

Binder | binding result [1] | binding result [2]
B1 | binds | –
B2 | – | binds
